This passage reports Kd results from article PMC5040827.

The target in one assay is GL_(CDR3rev4). Put plainly: SPR. The following applies: average of two or three experiments.
A word on the Kd: it is the equilibrium constant for the complex coming apart. Lower therefore signals a tighter complex. “BG505 T332N gp120 3MUT (T135A; T139I; one further mutation not printed)” came in with a Kd above 28000 nM.

The substance “BG505 T332N gp120 5MUT (V134Y; N136P; I138L; D140N; one further mutation not printed)” had a Kd above 34000 nM.

“BG505 T332N gp120 7MUT (T135A; T139I; V134Y; N136P; I138L; D140N; one further mutation not printed)” returned a Kd above 36000 nM.

With “BG505 T332N gp120 10MUT (T135A; T139I; V134Y; N136P; I138L; D140N; N137F; T320F; Q328M; one further mutation not printed)”, the Kd was above 150000 nM.

Another assay concerns the target PGT121. Put plainly: SPR. The note with it: average of two or three experiments.
“BG505 T332N gp120 5MUT (V134Y; N136P; I138L; D140N; one further mutation not printed)” returned a Kd of 5.7 nM.

Another assay deals with MD39-10MUT. Kind of assay: SPR.
Settings: not given
With PGDM1400, the Kd came out at 6 nM.

PGT121: the Kd is 0.8 nM.

As to PGT128, the Kd came to 3 nM.

Substance PGT151 had a Kd of 35 nM.

Turning to VRC01, the Kd was 142 nM.
